This note sets out measurements from patent publication US20110008345A1 (GlaxoSmithKline, published 2011).

For test [1], the target named is T1, Recombinant Human HGF R (c-MET)/Fc Chimera (human, UniProt P08581 25-932).
T1 construct: bought; also called HGF receptor
In words: ELISA. (In general: An ELISA detects its analyte on a solid surface through an enzyme-linked reagent.)

For the next test, the target named is T2, recombinant human VEGF (human, UniProt P15692-4 27-191).
T2 construct: also called VEGF165; hVEGF165
Put plainly: ELISA.

The target in test [2] is T3, recombinant E. coli-expressed cynomolgus IL-13 (cynomolgus, UniProt Q0PW92 21-132).
T3 construct: also called cyno IL-13
Put plainly: SPR. (In general: SPR reads the build-up and loss of mass on a sensor chip optically.)

The target in test [3] is T4, recombinant E. coli-expressed cynomolgus IL-4 (cynomolgus, UniProt P79339 25-153).
T4 construct: also called cyno IL-4
T4 sequence (looked up): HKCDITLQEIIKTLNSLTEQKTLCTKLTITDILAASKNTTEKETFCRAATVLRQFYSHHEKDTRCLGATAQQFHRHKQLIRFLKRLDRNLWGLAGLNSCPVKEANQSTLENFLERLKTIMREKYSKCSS
In words: SPR.

Test [4] has as its target T5, recombinant E. coli-expressed human IL-13 (human, UniProt P35225 35-146).
T5 construct: made and purified at GSK; also called Interleukin-13; rhIL-13
In words: SPR exp 1.

Test [5] deals with T5, recombinant E. coli-expressed human …. In words: SPR exp 2.
For test [6], the target named is T6, recombinant E. coli-expressed human IL-4 (human, UniProt P05112 25-153).
T6 construct: made and purified at GSK; also called Interleukin-4; rhIL-4
T6 sequence: T4 sequence (looked up) with K26E, I29V, L33F
Put plainly: SPR exp 2.

Test [7] concerns the target T5, recombinant E. coli-expressed human …. In words: cell-based or functional assay.
Test [8] concerns the target T6, recombinant E. coli-expressed human IL-4. Put plainly: cell-based or functional assay.
The target of test [9] is T3, recombinant E. coli-expressed …. Put plainly: cell-based or functional assay.
Test [10] concerns the target T4, recombinant E. coli-expressed …. In words: cell-based or functional assay.
Test [11] has as its target T5, recombinant E. coli-expressed human …. In words: ELISA, IL-13 binding to IL13Ralpha2/Fc.
The target is the same in test [12]. In words: ELISA, supernatant.
For test [13], the target named is T6, recombinant E. coli-expressed human IL-4. In words: ELISA, supernatant.
Test [14] addresses T5, recombinant E. coli-expressed human …. Put plainly: SPR.
For test [15] the target is unchanged. In words: SPR, no IL-4 bound.
Test [16] has the same target. In words: cell-based or functional assay. This is another data set of the same source.
Test [17] concerns the target T6, recombinant E. coli-expressed human IL-4. Put plainly: cell-based or functional assay. This is another data set of the same source.
Test [18] deals with T5, recombinant E. coli-expressed human …. Put plainly: SPR, human IL-4 bound first.
The target in test [19] is T6, recombinant E. coli-expressed human IL-4. Put plainly: ELISA, IL-4 binding to IL4Ralpha-Fc.
For test [20], the target named is T3, recombinant E. coli-expressed …. Put plainly: SPR. The source holds these as a separate data set.
Test [21] deals with T5, recombinant E. coli-expressed human …. In words: SPR exp 1. The source holds these as a separate data set.
Test [22] concerns the target T6, recombinant E. coli-expressed human IL-4. Put plainly: SPR exp 1.
For test [23], the target named is T5, recombinant E. coli-expressed human …. In words: SPR exp 2. The source holds these as a separate data set.
For test [24] the target is unchanged. Put plainly: cell-based or functional assay. This is another data set of the same source.
In test [25] the target is T3, recombinant E. coli-expressed …. Put plainly: cell-based or functional assay. The source holds these as a separate data set.
Test [26] deals with T6, recombinant E. coli-expressed human IL-4. Put plainly: SPR exp 2. This is another data set of the same source.
Test [27] addresses T5, recombinant E. coli-expressed human …. In words: SPR. This is another data set of the same source.
Test [28] deals with T6, recombinant E. coli-expressed human IL-4. In words: SPR.
Test [29] has the same target. In words: SPR, positive dissociation.

The Kd is the constant that tells how readily two partners part at equilibrium. Usually koff stands for the first-order rate constant of dissociation. What is called kon is the rate constant with which the complex forms. By IC50 is commonly meant the concentration needed to halve the response being measured.

Positions count from the first letter of the chain named. Like-named read-outs stand apart in the source and are kept apart here.

T1 sequence (P08581 25-932 limits assumed, change not shown): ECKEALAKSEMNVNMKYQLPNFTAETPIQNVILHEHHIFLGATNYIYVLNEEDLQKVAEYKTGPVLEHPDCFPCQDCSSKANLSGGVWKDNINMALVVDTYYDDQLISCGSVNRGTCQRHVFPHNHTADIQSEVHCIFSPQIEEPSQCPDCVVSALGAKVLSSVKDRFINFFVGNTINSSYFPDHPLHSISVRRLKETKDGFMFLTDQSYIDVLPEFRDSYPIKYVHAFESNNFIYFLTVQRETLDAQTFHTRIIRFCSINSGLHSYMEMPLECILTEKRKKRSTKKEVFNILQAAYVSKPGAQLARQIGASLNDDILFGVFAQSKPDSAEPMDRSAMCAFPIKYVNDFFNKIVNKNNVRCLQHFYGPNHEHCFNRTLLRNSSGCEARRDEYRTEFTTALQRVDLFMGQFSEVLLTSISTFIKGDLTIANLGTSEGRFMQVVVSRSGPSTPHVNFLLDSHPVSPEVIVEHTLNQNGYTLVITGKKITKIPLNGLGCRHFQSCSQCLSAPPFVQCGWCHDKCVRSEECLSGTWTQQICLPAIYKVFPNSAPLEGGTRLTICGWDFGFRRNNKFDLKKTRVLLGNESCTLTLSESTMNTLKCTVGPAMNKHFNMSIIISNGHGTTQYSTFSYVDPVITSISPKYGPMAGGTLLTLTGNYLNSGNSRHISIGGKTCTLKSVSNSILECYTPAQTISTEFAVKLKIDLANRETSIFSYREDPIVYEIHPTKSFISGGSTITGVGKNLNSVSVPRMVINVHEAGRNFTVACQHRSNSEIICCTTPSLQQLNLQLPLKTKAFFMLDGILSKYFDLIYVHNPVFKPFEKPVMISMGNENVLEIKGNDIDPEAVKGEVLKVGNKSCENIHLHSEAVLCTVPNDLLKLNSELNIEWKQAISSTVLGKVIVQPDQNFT

B1: BPC1020 (antibody, V domains shown)
VH: EVQLVESGGGLVQPGGSLRLSCAASGYTFTSYWLHWVRQAPGKGLEWVGMIDPSNSDTRFNPNFKDRFTISADTSKNTAYLQMNSLRAEDTAVYYCATYRSYVTPLDYWGQGTLVTVSS
VL: DIQMTQSPSSLSASVGDRVTITCKSSQSLLYTSSQKNYLAWYQQKPGKAPKLLIYWASTRESGVPSRFSGSGSGTDFTLTISSLQPEDFATYYCQQYYAYPWTFGQGTKVEIKR
Turning to B1, the results for the binding result (in [1]; with recombinant human VEGF) were “binds” and “no binding”, respectively.

B2: PascoH-TVAAPS-474 GS removed (bispecific antibody, human IgG1, kappa)
heavy: not shown
light: DIVLTQSPSSLSASVGDRVTITCKASQSVDYDGDSYMNWYQQKPGKAPKLLIYAASNLESGIPSRFSGSGSGTDFTFTISSLQPEDIATYYCQQSNEDPPTFGQGTKVEIKRTVAAPSVFIFPPSDEQLKSGTASVVCLLNNFYPREAKVQWKVDNALQSGNSQESVTEQDSKDSTYSLSSTLTLSKADYEKHKVYACEVTHQGLSSPVTKSFNRGEC
For the molecule B2, the Kd in test [2] was 26.7 nM; in test [3], 0.029 nM; in test [4], 0.268 nM; in test [5] it was 0.305 nM; in test [6], 0.011 nM. The figures for the koff in test [2] and in [3] were 0.0129 s⁻¹ and 5.3e-05 s⁻¹, respectively. The kon worked out at 483000 M⁻¹ s⁻¹ in test [2] and 1.83e+06 M⁻¹ s⁻¹ in test [3]. The “Mean ND50 (TF-1)” value is 2.11 nM in [7], 3.02 nM in [8], 47.9 nM in test [9] and 1.36 nM in [10]. The half-maximal inhibitory concentration (IC50) in test [11] stood at 7.41 nM.

B3: BPC1617 (bispecific antibody, human IgG2, kappa)
heavy: QVTLRESGPALVKPTQTLTLTCTFSGFSLSTSGMGVSWIRQPPGKGLEWLAHIYWDDDKRYNPSLKSRLTISKDTSRNQVVLTMTNMDPVDTATYYCARRETVFYWYFDVWGRGTLVTVSSASTKGPSVFPLAPCSRSTSESTAALGCLVKDYFPEPVTVSWNSGALTSGVHTFPAVLQSSGLYSLSSVVTVPSSNFGTQTYTCNVDHKPSNTKVDKTVERKCCVECPPCPAPPVAGPSVFLFPPKPKDTLMISRTPEVTCVVVDVSHEDPEVQFNWYVDGVEVHNAKTKPREEQFNSTFRVVSVLTVVHQDWLNGKEYKCKVSNKGLPAPIEKTISKTKGQPREPQVYTLPPSREEMTKNQVSLTCLVKGFYPSDIAVEWESNGQPENNYKTTPPMLDSDGSFFLYSKLTVDKSRWQQGNVFSCSVMHEALHNHYTQKSLSLSPGKGSGVQLLESGGGLVQPGGSLRLSCAASGFTFAWYDMGWVRQAPGKGLEWVSSIDWHGEVTYYADSVKGRFTISRDNSKNTLYLQMNSLRAEDTAVYYCATAEDEPGYDYWGQGTLVTVSS
light: B2 light
As for B3, the binding result in test [12] and in test [13] was “binds” in each case.

B4: PascoH-474 GS removed (bispecific antibody, human IgG1, kappa)
heavy: not shown
light: B2 light
As to B4, the equilibrium dissociation constant (Kd) came to 0.423 nM in test [14]; 16.6 nM in test [2]; 0.0342 nM in test [3]; 0.331 nM in [4]; 0.351 nM in test [5]; 0.005 nM in [6]. Further, the dissociation constant (Kd) in test [15] is 0.425 nM; in test [18], 0.408 nM. Besides, the off-rate (koff) in test [14] turned out to be 0.000266 s⁻¹; in [2], 0.011 s⁻¹; in test [3], 6.38e-05 s⁻¹; in [15] it was 0.000259 s⁻¹; in test [18], 0.000231 s⁻¹. Besides, the kon in [14] came out at 629000 M⁻¹ s⁻¹; in test [2], 662000 M⁻¹ s⁻¹; in test [3] it was 1.87e+06 M⁻¹ s⁻¹; in test [15] it was 609000 M⁻¹ s⁻¹; in test [18], 566000 M⁻¹ s⁻¹. Also, the “Mean ND50 (TF-1)” value in test [7] stood at 2.27 nM; in test [8] it was 2.85 nM; in test [9], 39.8 nM; in [10], 1.89 nM. Also, the “Mean IC50 (whole blood phospho-STAT6)” value came to 2.78 nM in [16] and 7.95 nM in test [17]. Also, the figures for the IC50 in test [19] and in test [11] were 5.14 nM and 9.58 nM, respectively.

B5: BPC1618 (bispecific antibody, human IgG4, kappa)
heavy: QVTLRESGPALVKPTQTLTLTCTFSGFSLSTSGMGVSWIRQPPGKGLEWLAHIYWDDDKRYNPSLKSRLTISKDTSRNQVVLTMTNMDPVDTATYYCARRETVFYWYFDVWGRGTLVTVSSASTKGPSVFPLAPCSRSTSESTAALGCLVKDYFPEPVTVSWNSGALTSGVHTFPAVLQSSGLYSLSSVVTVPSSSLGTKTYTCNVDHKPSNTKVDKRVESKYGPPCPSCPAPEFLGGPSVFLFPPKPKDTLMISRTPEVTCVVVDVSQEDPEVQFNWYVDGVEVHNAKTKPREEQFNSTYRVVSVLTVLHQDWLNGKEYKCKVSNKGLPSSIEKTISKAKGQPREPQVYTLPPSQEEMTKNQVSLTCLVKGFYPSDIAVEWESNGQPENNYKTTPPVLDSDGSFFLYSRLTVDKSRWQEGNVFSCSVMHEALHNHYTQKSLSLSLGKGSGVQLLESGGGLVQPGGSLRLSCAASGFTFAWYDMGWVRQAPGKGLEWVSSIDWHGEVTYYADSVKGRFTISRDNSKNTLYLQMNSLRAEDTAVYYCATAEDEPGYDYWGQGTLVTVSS
light: B2 light
In the case of B5, the binding result in [12] and in test [13] was “binds” in each case.

B6: BPC1619 (bispecific antibody, human IgG4 S228P, kappa)
heavy: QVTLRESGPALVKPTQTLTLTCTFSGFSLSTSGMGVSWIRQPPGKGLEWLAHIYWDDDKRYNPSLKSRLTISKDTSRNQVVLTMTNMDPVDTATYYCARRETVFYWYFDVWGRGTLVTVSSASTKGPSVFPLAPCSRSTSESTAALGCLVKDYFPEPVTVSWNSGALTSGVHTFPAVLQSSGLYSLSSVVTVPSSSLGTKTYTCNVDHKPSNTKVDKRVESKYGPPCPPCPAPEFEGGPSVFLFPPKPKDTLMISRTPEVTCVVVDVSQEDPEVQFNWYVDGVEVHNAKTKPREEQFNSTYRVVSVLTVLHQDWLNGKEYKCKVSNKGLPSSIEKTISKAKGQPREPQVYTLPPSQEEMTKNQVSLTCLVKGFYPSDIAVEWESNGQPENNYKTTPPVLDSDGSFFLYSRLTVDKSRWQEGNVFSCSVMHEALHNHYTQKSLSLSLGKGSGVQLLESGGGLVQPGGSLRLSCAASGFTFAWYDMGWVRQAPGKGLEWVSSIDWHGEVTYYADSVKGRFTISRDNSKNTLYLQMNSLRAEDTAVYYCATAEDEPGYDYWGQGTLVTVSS
light: B2 light
Take B6: the binding result in test [12] and in [13] was “binds” each time.

B7: PascoH-616 (bispecific antibody, human IgG1, kappa)
heavy: not shown
light: B2 light
For the molecule B7, the equilibrium dissociation constant (Kd) came to 5.4 nM in test [20], 0.114 nM in test [21], 0.00172 nM in [22] and 0.15 nM in [23]. Further, the koff in test [20] is 0.00184 s⁻¹. For the same molecule, in [20], the on-rate constant (kon) turned out to be 341000 M⁻¹ s⁻¹. The “Mean ND50 (TF-1)” value in [24] came out at 0.796 nM; in test [25] it was 9.23 nM. Also, the IC50 in test [11] worked out at 6.41 nM.

B8: PascoH-TVAAPS-616 (bispecific antibody, human IgG1, kappa)
heavy: not shown
light: B2 light
Consider B8, for which the dissociation constant Kd in test [20] is 9.8 nM; in test [21] it was 0.0497 nM; in test [22], 0.003 nM; in [23], 0.056 nM; in [26], 0.005 nM. Further, the koff in test [20] came out at 0.00451 s⁻¹. In test [20], the association rate constant (kon) is 460000 M⁻¹ s⁻¹. In addition, the “Mean ND50 (TF-1)” value turned out to be 0.722 nM in test [24] and 14.5 nM in test [25]. In addition, the IC50 in test [11] was determined as 6.17 nM.

B9: 586H-TVAAPS-147 (bispecific antibody, human IgG1, kappa)
heavy: not shown
light: DIVMTQSPLSLPVTPGEPASISCRSSQNIVHINGNTYLEWYLQKPGQSPRLLIYKISDRFSGVPDRFSGSGSGTDFTLKISRVEADDVGIYYCFQGSHVPWTFGQGTKLEIKRTVAAPSVFIFPPSDEQLKSGTASVVCLLNNFYPREAKVQWKVDNALQSGNSQESVTEQDSKDSTYSLSSTLTLSKADYEKHKVYACEVTHQGLSSPVTKSFNRGEC
For the molecule B9, in test [27], the dissociation constant Kd was 0.56 nM. In [28], the koff was 6.69e-07 s⁻¹ and the kon worked out at 66200 M⁻¹ s⁻¹. In addition, in [29], the Kd turned out to be 0.011 nM.

B10: BPC1019 (antibody, human IgG1, kappa)
heavy: not shown
chain: not shown
light: DIQMTQSPSSLSASVGDRVTITCKSSQSLLYTSSQKNYLAWYQQKPGKAPKLLIYWASTRESGVPSRFSGSGSGTDFTLTISSLQPEDFATYYCQQYYAYPWTFGQGTKVEIKRTVAAPSVFIFPPSDEQLKSGTASVVCLLNNFYPREAKVQWKVDNALQSGNSQESVTEQDSKDSTYSLSSTLTLSKADYEKHKVYACEVTHQGLSSPVTKSFNRGEC
notes: monovalent antibody; also called anti cMET 5D5v2 knob-into-hole
Turning to B10, the binding result in test [1] is recorded as “binds”; in the test with recombinant human VEGF, “no binding”.
